Reference: the supplement of paper PMC11246515
± gives the standard deviation of the averaged measurements.

Assay: total protein half-life in vivo (active degradation + dilution); higher = more stable protein
[1] = wild type E. coli NCM3722, growth: C-lim chemostat, doubling time 6 h
[2] = wild type E. coli NCM3722, growth: C-lim chemostat, doubling time 12 h
[3] = E. coli NCM3722 delta-clpP delta-lon delta-hslV, growth: N-lim chemostat, doubling time 6 h
[4] = E. coli NCM3722 delta-clpP, growth: N-lim chemostat, doubling time 6 h
[5] = E. coli NCM3722 delta-hslV, growth: N-lim chemostat, doubling time 6 h
[6] = E. coli NCM3722 delta-lon, growth: N-lim chemostat, doubling time 6 h
[7] = E. coli NCM3722 delta-smpB, growth: N-lim chemostat, doubling time 6 h
[8] = wild type E. coli NCM3722, growth: C-lim chemostat, doubling time 3 h
[9] = wild type E. coli NCM3722, growth: N-lim chemostat, doubling time 6 h
[10] = wild type E. coli NCM3722, growth: N-lim chemostat, doubling time 12 h
[11] = wild type E. coli NCM3722, growth: P-lim chemostat, doubling time 6 h
[12] = wild type E. coli NCM3722, growth: P-lim chemostat, doubling time 12 h

Sequence	total protein half-life in vivo [1]	total protein half-life in vivo [2]	total protein half-life in vivo [3]	total protein half-life in vivo [4]	total protein half-life in vivo [5]	total protein half-life in vivo [6]	total protein half-life in vivo [7]	total protein half-life in vivo [8]	total protein half-life in vivo [9]	total protein half-life in vivo [10]	total protein half-life in vivo [11]	total protein half-life in vivo [12]
MRKIKGLRWYMIALVTLGTVLGYLTRNTVAAAAPTLMEELNISTQQYSYIIAAYSAAYTVMQPVAGYVLDVLGTKIGYAMFAVLWAVFCGATALAGSWGGLAVARGAVGAAEAAMIPAGLKASSEWFPAKERSIAVGYFNVGSSIGAMIAPPLVVWAIVMHSWQMAFIISGALSFIWAMAWLIFYKHPRDQKHLTDEERDYIINGQEAQHQVSTAKKMSVGQILRNRQFWGIALPRFLAEPAWGTFNAWIPLFMFKVYGFNLKEIAMFAWMPMLFADLGCILGGYLPPLFQRWFGVNLIVSRKMVVTLGAVLMIGPGMIGLFTNPYVAIMLLCIGGFAHQALSGALITLSSDVFGRNEVATANGLTGMSAWLASTLFALVVGALADTIGFSPLFAVLAVFDLLGALVIWTVLQNKPAIEVAQETHNDPAPQH [P0AA78]	5.93 ± 0.18 h	9.36 ± 0.82 h	–	–	–	–	–	–	–	–	–	–
MSKSENLYSAARELIPGGVNSPVRAFTGVGGTPLFIEKADGAYLYDVDGKAYIDYVGSWGPMVLGHNHPAIRNAVIEAAERGLSFGAPTEMEVKMAQLVTELVPTMDMVRMVNSGTEATMSAIRLARGFTGRDKIIKFEGCYHGHADCLLVKAGSGALTLGQPNSPGVPADFAKYTLTCTYNDLASVRAAFEQYPQEIACIIVEPVAGNMNCVPPLPEFLPGLRALCDEFGALLIIDEVMTGFRVALAGAQDYYGVVPDLTCLGKIIGGGMPVGAFGGRRDVMDALAPTGPVYQAGTLSGNPIAMAAGFACLNEVAQPGVHETLDELTTRLAEGLLEAAEEAGIPLVVNHVGGMFGIFFTDAESVTCYQDVMACDVERFKRFFHMMLDEGVYLAPSAFEAGFMSVAHSMEDINNTIDAARRVFAKL	7.43 ± 0.21 h	11.3 ± 1.3 h	6.35 ± 2.3 h	4.99 ± 0.35 h	5 ± 0.21 h	5.33 ± 0.43 h	3.93 ± 0.1 h	3.45 ± 0.48 h	4.57 ± 0.2 h	7.897 ± 0.015 h	5.51 ± 0.059 h	12.6 ± 0.035 h
MKQTQRHNGIIELVKQQGYVSTEELVEHFSVSPQTIRRDLNELAEQNLILRHHGGAALPSSSVNTPWHDRKATQTEEKERIARKVAEQIPNGSTLFIDIGTTPEAVAHALLNHSNLRIVTNNLNVANTLMVKEDFRIILAGGELRSRDGGIIGEATLDFISQFRLDFGILGISGIDSDGSLLEFDYHEVRTKRAIIENSRHVMLVVDHSKFGRNAMVNMGSISMVDAVYTDAPPPVSVMQVLTDHHIQLELC [P0ACL0]	5.9 ± 0.41 h	10.73 ± 0.031 h	6.303 ± 0.03 h	5.91 ± 0.36 h	5.156 ± 0.034 h	5.78 ± 0.11 h	5.52 ± 0.89 h	2.84 ± 0.11 h	5.84 ± 0.25 h	10.323 ± 0.00092 h	5.28 ± 0.33 h	11.3 ± 0.63 h
MIKRVLVVSMVGLSLVGCVNNDTLSGDVYTASEAKQVQNVSYGTIVNVRPVQIQGGDDSNVIGAIGGAVLGGFLGNTVGGGTGRSLATAAGAVAGGVAGQGVQSAMNKTQGVELEIRKDDGNTIMVVQKQGNTRFSPGQRVVLASNGSQVTVSPR [P0A905]	5.41 ± 0.79 h	9.39 ± 0.33 h	5.26 ± 0.26 h	5.83 ± 0.096 h	6.11 ± 0.62 h	6.23 ± 0.85 h	6.1 ± 0.32 h	2.899 ± 0.023 h	5.49 ± 0.094 h	11.5 ± 0.94 h	5.87 ± 0.41 h	11.5 ± 0.73 h
MSKGTTSQDAPFGTLLGYAPGGVAIYSSDYSSLDPQEYEDDAVFRSYIDDEYMGHKWQCVEFARRFLFLNYGVVFTDVGMAWEIFSLRFLREVVNDNILPLQAFPNGSPRAPVAGALLIWDKGGEFKDTGHVAIITQLHGNKVRIAEQNVIHSPLPQGQQWTRELEMVVENGCYTLKDTFDDTTILGWMIQTEDTEYSLPQPEIAGELLKISGARLENKGQFDGKWLDEKDPLQNAYVQANGQVINQDPYHYYTITESAEQELIKATNELHLMYLHATDKVLKDDNLLALFDIPKILWPRLRLSWQRRRHHMITGRMDFCMDERGLKVYEYNADSASCHTEAGLILERWAEQGYKGNGFNPAEGLINELAGAWKHSRARPFVHIMQDKDIEENYHAQFMEQALHQAGFETRILRGLDELGWDAAGQLIDGEGRLVNCVWKTWAWETAFDQIREVSDREFAAVPIRTGHPQNEVRLIDVLLRPEVLVFEPLWTVIPGNKAILPILWSLFPHHRYLLDTDFTVNDELVKTGYAVKPIAGRCGSNIDLVSHHEEVLDKTSGKFAEQKNIYQQLWCLPKVDGKYIQVCTFTVGGNYGGTCLRGDESLVIKKESDIEPLIVVKK [P0AES0]	5.17 ± 0.38 h	10.6 ± 0.36 h	5 ± 0.066 h	4.62 ± 0.17 h	4.62 ± 0.18 h	6.12 ± 1.3 h	4.58 ± 0.23 h	3 ± 0.4 h	4.645 ± 0.024 h	8.42 ± 0.4 h	5.85 ± 0.5 h	11.2 ± 0.72 h
MKKLVLSLSLVLAFSSATAAFAAIPQNIRIGTDPTYAPFESKNSQGELVGFDIDLAKELCKRINTQCTFVENPLDALIPSLKAKKIDAIMSSLSITEKRQQEIAFTDKLYAADSRLVVAKNSDIQPTVESLKGKRVGVLQGTTQETFGNEHWAPKGIEIVSYQGQDNIYSDLTAGRIDAAFQDEVAASEGFLKQPVGKDYKFGGPSVKDEKLFGVGTGMGLRKEDNELREALNKAFAEMRADGTYEKLAKKYFDFDVYGG [P0AEU0]	6.45 ± 1 h	13.1 ± 0.17 h	–	5.99 ± 0.12 h	6.1 ± 0.068 h	6.35 ± 0.24 h	5.88 ± 0.91 h	3.08 ± 0.17 h	5.8 ± 0.59 h	13.9 ± 0.36 h	6.2 ± 0.54 h	14.3 ± 0.77 h
MMSAPKITFIGAGSTIFVKNILGDVFHREALKTAHIALMDIDPTRLEESHIVVRKLMDSAGASGKITCHTQQKEALEDADFVVVAFQIGGYEPCTVTDFEVCKRHGLEQTIADTLGPGGIMRALRTIPHLWQICEDMTEVCPDATMLNYVNPMAMNTWAMYARYPHIKQVGLCHSVQGTAEELARDLNIDPATLRYRCAGINHMAFYLELERKTADGSYVNLYPELLAAYEAGQAPKPNIHGNTRCQNIVRYEMFKKLGYFVTESSEHFAEYTPWFIKPGREDLIERYKVPLDEYPKRCVEQLANWHKELEEYKKASRIDIKPSREYASTIMNAIWTGEPSVIYGNVRNDGLIDNLPQGCCVEVACLVDANGIQPTKVGTLPSHLAALMQTNINVQTLLTEAILTENRDRVYHAAMMDPHTAAVLGIDEIYALVDDLIAAHGDWLPGWLHR	4.25 ± 0.26 h	8.03 ± 1.2 h	4.14 h	2.52 ± 0.52 h	1.5 h	2.73 h	–	3.25 ± 0.39 h	1.97 h	–	4.92 ± 0.48 h	9.8 ± 0.35 h
MKMANHPRPGDIIQESLDELNVSLREFARAMEIAPSTASRLLTGKAALTPEMAIKLSVVIGSSPQMWLNLQNAWSLAEAEKTVDVSRLRRLVTQ	2.32 h	2.59 h	3.73 ± 0.35 h	–	–	–	1.217 ± 0.0059 h	1.58 h	–	–	–	3.05 ± 1.1 h
MSKISDLNYSQHITLADNFKQKSEVLNTWRVGMNDFARIAGGQDNRRNILSPGAFLEFLAKIFTLGYVDFSKRSNEAGRNMMAHIKSSSYSKDTNGNEKMKFYMNNPVGERADSPKVIIEISLSTITTMGTRQGHTAIIFPQPDGSTNRYEGKSFERKDESSLHLITNKVLACYQSEANKKIARLLNNNQELNNLQKLNNLQKLNNLLKLNNIQGLNNPQELNNPQNLNDSQELNNSQELNSPQELNDPQELNNSQDLNNSKVSCTVSVDSTITGLLKEPLNNALLAIRNEHLLLMPHVCDESISYLLGEKGILEEIDKLYALNDHGIDNDKVGNNEINDIKVNLSHILIDSLDDAKVNLTPVIDSILETFSKSPYINDVRILDWCFNKSMQYFDDTKKIKHACSVINHINLRSDQSKIAETLFFNLDKEPYKNSPELQGLIWNKLVVYVNEFNLSNREKTNLIQRLFDNVESIFNEVPVSILVNDIFMNDFFMKNPEMINWYFPQLLKSYEGEKIYFDNLKYDLNDNDKESNKEILKNQPDNVIKEKLNNEYKLRFRMMQTILQSRVNVLPYINEQRLNKLNPPENLRIAIEHFGWKNRPITA	3.95 ± 2.7 h	8.85 h	5.05 h	4.13 ± 0.42 h	4.07 h	3.78 h	–	1.27 h	–	–	2.71 h	2.84 ± 1.1 h
MNIKGKALLAGCIALAFSNMALAEDIKVAVVGAMSGPVAQYGDQEFTGAEQAVADINAKGGIKGNKLQIVKYDDACDPKQAVAVANKVVNDGIKYVIGHLCSSSTQPASDIYEDEGILMITPAATAPELTARGYQLILRTTGLDSDQGPTAAKYILEKVKPQRIAIVHDKQQYGEGLARAVQDGLKKGNANVVFFDGITAGEKDFSTLVARLKKENIDFVYYGGYHPEMGQILRQARAAGLKTQFMGPEGVANVSLSNIAGESAEGLLVTKPKNYDQVPANKPIVDAIKAKKQDPSGAFVWTTYAALQSLQAGLNQSDDPAEIAKYLKANSVDTVMGPLTWDEKGDLKGFEFGVFDWHANGTATDAK [P0AD96]	6.24 ± 0.17 h	11.46 ± 0.034 h	6.22 ± 0.16 h	5.81 ± 0.64 h	6.127 ± 0.057 h	6.35 ± 0.39 h	5.96 ± 0.19 h	3.27 ± 0.18 h	6.02 ± 0.32 h	12.23 ± 0.02 h	5.67 ± 0.064 h	13 ± 0.45 h
MTTYDRNRNAITTGSRVMVSGTGHTGKILSIDTEGLTAEQIRRGKTVVVEGCEEKLAPLDLIRLGMN	4.16 ± 0.068 h	5.42 ± 0.38 h	4.22 ± 0.059 h	–	4.25 ± 0.64 h	4.53 ± 0.13 h	4.42 ± 0.76 h	2.88 ± 0.38 h	4.075 ± 0.023 h	6.36 ± 0.21 h	4.52 ± 0.25 h	9.35 ± 0.55 h
MSRRLRRTKIVTTLGPATDRDNNLEKVIAAGANVVRMNFSHGSPEDHKMRADKVREIAAKLGRHVAILGDLQGPKIRVSTFKEGKVFLNIGDKFLLDANLGKGEGDKEKVGIDYKGLPADVVPGDILLLDDGRVQLKVLEVQGMKVFTEVTVGGPLSNNKGINKLGGGLSAEALTEKDKADIKTAALIGVDYLAVSFPRCGEDLNYARRLARDAGCDAKIVAKVERAEAVCSQDAMDDIILASDVVMVARGDLGVEIGDPELVGIQKALIRRARQLNRAVITATQMMESMITNPMPTRAEVMDVANAVLDGTDAVMLSAETAAGQYPSETVAAMARVCLGAEKIPSINVSKHRLDVQFDNVEEAIAMSAMYAANHLKGVTAIITMTESGRTALMTSRISSGLPIFAMSRHERTLNLTALYRGVTPVHFDSANDGVAAASEAVNLLRDKGYLMSGDLVIVTQGDVMSTVGSTNTTRILTVE	5.989 ± 0.05 h	11.4 ± 0.78 h	5.558 ± 0.04 h	5.39 ± 0.19 h	5.15 ± 0.41 h	5.61 ± 0.28 h	5.32 ± 0.27 h	3.02 ± 0.11 h	5.4882 ± 0.00083 h	9.898 ± 0.052 h	5.96 ± 0.26 h	13.1 ± 0.68 h
MKLYIYDHCPYCLKARMIFGLKNIPVELHVLLNDDAETPTRMVGQKQVPILQKDDSRYMPESMDIVHYVDKLDGKPLLTGKRSPAIEEWLRKVNGYANKLLLPRFAKSAFDEFSTPAARKYFVDKKEASAGNFADLLAHSDGLIKNISDDLRALDKLIVKPNAVNGELSEDDIQLFPLLRNLTLVAGINWPSRVADYRDNMAKQTQINLLSSMAI [P0AC59]	5.57 ± 0.23 h	11.7 ± 1.8 h	–	5.06 ± 0.73 h	5.49 ± 0.35 h	5.77 ± 0.24 h	5.01 ± 0.41 h	–	5.02 ± 0.15 h	9.43 ± 0.3 h	5.33 ± 0.55 h	11.9 ± 0.21 h
